According to patent publication US20020151463A1 (UT BATTELLE, published 2002):

B1: recombinant murine agouti protein (ligand)
chain: HLALEETLGDDRSLRSNSSMNSLDFSSVSIVALNKKSKKISRKEAEKRKRSSKKKASMKKVARPPPPSPCVATRDSCKPPAPACCDPCASCQCRFFGSACTCRVLNPNC
notes: Full-length mouse agouti cDNA expressed by baculovirus in T. ni cells; also called mouse agouti; agouti polypeptide
B2: recombinant human agouti protein (ligand)
chain: HLPPEEKLRDDRSLRSNSSVNLLDVPSVSIVALNKKSKQIGRKAAEKKRSSKKEASMKKVVRPRTPLSAPCVATRNSCKPPAPACCDPCASCQCRFFRSACSCRVLSLNC

Experiments:
murine MSH receptor [1] = biological target: T1, murine MSH receptor (mouse, UniProt Q01727 1-315); test: competition binding against 125I-ACTH1-39 on Cloudman M-3 melanoma cells, single-site model
T1 construct: whole, on cells; Stably transfected in 293 cells for the adenylyl cyclase assays; also called mMSH-R; mouse MSH-R
Experimental: To investigate this further, the ability of the protein to compete with another melanocortin peptide for binding to the mouse MSH-R was examined. […] Competition binding studies were performed with ¹²⁵I-labelled ACTH₁₋₃₉ and the M-3 subclone of the Cloudman murine melanoma cell line.

murine MSH receptor [2] = biological target: T1, murine MSH receptor; test: cell-based or functional assay
human MSH receptor = human MSH receptor (human, UniProt Q01726 1-317); test: cell-based or functional assay
human MSH receptor, sequence (Q01726 whole entry): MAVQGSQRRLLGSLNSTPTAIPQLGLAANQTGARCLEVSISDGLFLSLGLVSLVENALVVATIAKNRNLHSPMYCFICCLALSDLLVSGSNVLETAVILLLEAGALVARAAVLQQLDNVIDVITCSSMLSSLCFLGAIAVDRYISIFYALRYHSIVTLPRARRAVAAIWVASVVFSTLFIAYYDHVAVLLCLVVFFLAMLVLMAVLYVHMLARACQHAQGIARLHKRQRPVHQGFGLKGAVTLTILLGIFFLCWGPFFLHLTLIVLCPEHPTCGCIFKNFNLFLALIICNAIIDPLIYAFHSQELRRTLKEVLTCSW

T1 sequence (Q01727 whole entry): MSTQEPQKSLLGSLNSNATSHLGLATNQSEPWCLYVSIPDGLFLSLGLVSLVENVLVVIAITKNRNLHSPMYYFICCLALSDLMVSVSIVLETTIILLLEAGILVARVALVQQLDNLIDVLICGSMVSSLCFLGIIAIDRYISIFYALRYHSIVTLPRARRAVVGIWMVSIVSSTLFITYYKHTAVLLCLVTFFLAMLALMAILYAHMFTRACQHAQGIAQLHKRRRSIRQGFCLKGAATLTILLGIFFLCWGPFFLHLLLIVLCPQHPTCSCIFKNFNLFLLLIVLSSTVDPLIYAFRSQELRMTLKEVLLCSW

Binder	IC50 (murine MSH receptor [1])	Ki (murine MSH receptor [1])	apparent Ki (antagonism of α-MSH-stimulated adenylyl cyclase, four independent studies) (murine MSH receptor [2])	EC50 of the [Ca^2+]i dose response in the HEK-293 MC1R line (human MSH receptor)
B1	1.2 ng/mL	0.66 nM	0.32 nM	
B2				~18 nM
